In US20200230201A1 (CITY OF HOPE, published 2020):
Changes are numbered by the printed parent chain. Names may count otherwise. Each block holds one binder with its values, some of them ahead of it.

Target: RELA (wild type) (UniProt Q04206 1-551)
Test: cell-based or functional assay

Chain of RELA (wild type) (Q04206 whole entry): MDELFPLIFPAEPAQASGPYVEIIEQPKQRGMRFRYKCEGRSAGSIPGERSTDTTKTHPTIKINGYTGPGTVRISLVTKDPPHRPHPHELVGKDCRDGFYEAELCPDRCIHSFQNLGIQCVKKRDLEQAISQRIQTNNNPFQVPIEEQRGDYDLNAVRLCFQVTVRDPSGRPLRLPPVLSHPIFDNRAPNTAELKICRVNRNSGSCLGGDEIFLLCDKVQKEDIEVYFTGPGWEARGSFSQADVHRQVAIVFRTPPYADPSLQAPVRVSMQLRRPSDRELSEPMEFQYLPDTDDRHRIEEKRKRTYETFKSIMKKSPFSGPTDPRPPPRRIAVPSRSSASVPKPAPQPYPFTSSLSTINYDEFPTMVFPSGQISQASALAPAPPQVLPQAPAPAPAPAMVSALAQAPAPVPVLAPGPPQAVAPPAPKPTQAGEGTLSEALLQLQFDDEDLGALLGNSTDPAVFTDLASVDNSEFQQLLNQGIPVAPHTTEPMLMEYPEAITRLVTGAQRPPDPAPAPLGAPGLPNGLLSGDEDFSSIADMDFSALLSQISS

IL-8 promoter driven firefly luciferase (FFluc), dual luciferase assay, Ovcar4 cells: ~2 fold
B1: TWIST1 (wild type, Myc-His tagged) (other, not shown: small tags and cut ends)
chain: MMQDVSSSPVSPADDSLSNSEEEPDRQQPPSGKRGGRKRRSSRRSAGGGAGPGGAAGGGVGGGDEPGSPAQGKRGKKSAGCGGGGGAGGGGGSSSGGGSPQSYEELQTQRVMANVRERQRTQSLNEAFAALRKIIPTLPSDKLSKIQTLKLAARYIDFLYQVLQSDELDSKMASCSYVAHERLSYAFSVWRMEGAWSMSASH

decrease in IL-8 promoter driven firefly luciferase (FFluc), dual luciferase assay, Ovcar4 cells: ~50%
B2: TWIST1 R191A (other, not shown: small tags and cut ends)
chain: B1 chain with R191A

decrease in IL-8 promoter driven firefly luciferase (FFluc), dual luciferase assay, Ovcar4 cells: ~50%
B3: TWIST1 E193A (other, not shown: small tags and cut ends)
chain: B1 chain with E193A

decrease in IL-8 promoter driven firefly luciferase (FFluc), dual luciferase assay, Ovcar4 cells: ~50%
B4: TWIST1 W190A (other, not shown: small tags and cut ends)
chain: B1 chain with W190A
